Measurements as given in patent publication US20230108300A1 (University of Pennsylvania, published 2023).

Target: MART1 clone DMF4 TCR (includes the TCRvβ12 segment) expressed on SupT1 cells
Assay: cell-based or functional assay

lysis of the target cell lines at three E:T ratios: ~100%
B1: Vβ12-targeting CAR (construct not specified for the experiment) (other)
VH: EVMLVESGGGLVKPGGSLKLSCAASGFTFRSYAMSWVRQTPEKRLEWVATISSGGSYTNYPDSVKGRFTISRDNAKNTLNLQMNSLRSEDTAMYYCARGYHGYLDVWGAGTTVTVSS
VL: DILLTQSPAFLSVSPGERVSFSCRASQSIGTSIHWYQQRTNGSPRLLIKYASESFSGIPSRFSGSGSGTDFTLSISSVESEDIADYYCQQSYSWPYTFGGGTKLEIK
